This is an account of results in the nanobody polyreactivity screen of Harvey et al. (2022).

The data set is described as follows: yeast display, Sf9 membrane polyspecificity reagent, FACS + sequencing; frameworks hold sequencing errors. Put shortly:
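Synthetic nanobody libraries on Saccharomyces cerevisiae BJ5465 were galactose-induced for 36–48 hours, stained 1 hour at 4 °C with 10% biotinylated, detergent-solubilized Sf9 membrane reagent and enriched on streptavidin microbeads. FACS then separated cells into low and high (top ~1%) gates by anti-HA (expression) and streptavidin (reagent binding) fluorescence. Genes were colony-PCR amplified, MiSeq 2 × 250 sequenced and CDR-length filtered. A clone's polyreactivity label is that of its gate of origin.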
For “QVQLVESGGGLVQAGGSLRLSCAASGLTIQLYAMGWYRQAPGKERELVAAISGSGGRTYYADSVKGRFTISRDNAKNTVYLQMNSLKPEDTAVYYCAARPGSGRSYTSDYWGQGTEVTVSS”, the “polyreactivity (PSR sort gate)” value is recorded as “high polyreactivity”.

“QVQLGESGGGLVQAGGSLRLSCAASGGTYTHYGMGWYRQATGKERELVAAITWTASSTYYADSVKGRFTISRDNAKNTVYLQMNSLKPEDTAVYYCATSYYYWGHTYDYWGQGTQVTVSS”: the “polyreactivity (PSR sort gate)” value was “low polyreactivity”.

As for “QVQLVESGGGLVQAGGSLRLSCAPSGSIFPYAMGWYRQAPGKERELVAAITRSGASTYYADSVKGRFTISRDNAKNTVYLQLNSLKPEDTAVYYCAAYALRGVRYPYRVDFYYWGQGTQVTVSS”, the “polyreactivity (PSR sort gate)” value is “high polyreactivity”.

Take “KCQLVDSGGGLVQAGGSLRLSCAASGSIFYVKAMGWYRQAPGKEREFVADITYTGGSTYYADSVNGRFTISRDNAKNTVYLQMNSLKPEDTAVYYCAADLYTTYVAIYDYWGQGTQVTVSS”: the “polyreactivity (PSR sort gate)” value was “low polyreactivity”.

As for “QVQLVESGGGLVQAGGSLRLSCAASGRTFRSNAMGGTTQAPGKERQLVAGITKSGGNTYYADSVKGRFTISRDNAKNTVYLQMTSLKPEDTAVYYCATRYYPLVNYLGYDYWGQGTQVTVSW”, the “polyreactivity (PSR sort gate)” value is listed as “low polyreactivity”.

Regarding “QVQLVESGGGLVQAGGSLRLSCAASGSIFGSYAMGWYRPAPGKERELVAGITYRGSSTYYADSVKGRFTISRDNAKNTVYLQMNSLKPEDTAVYYCAADSVFDEYDYWGQGTQVTVSS”, the “polyreactivity (PSR sort gate)” value was “low polyreactivity”.

“QVQLVESGGGLVQAGGSLRLSCAASGLTFRYYAMGWYRQAPGKERELVAAISSRGASTYYADSVKGRFTISRDNAKNTVYLQMNSLKPEDTAVYYCAVRTYVYHWSFSSLPYDYWGQGTQVTVSS”: the “polyreactivity (PSR sort gate)” value was “high polyreactivity”.

Regarding “QVQLVESGGGLVQAGGSLRLSCAASGRTFDLYDMGWYRQAPGKERELVARISYNGGITYYADSVKGRFTISRDNAKNTVYLQMNSLKPEDTAVYYCDGRYRPHFGPLFEYDYWGQGTQVTVSS”, the “polyreactivity (PSR sort gate)” value was “low polyreactivity”.

“QVQLVESGGGLVQAGGSLRLSCAASGSTCVSNAMGWYRQAPGKERELVAAISSGDNTNYADSVKGRFTISRDNAKNTVYVQMNSLKPEDTAVYYCAARAYRWRSFSTMYYWGQGTQVTVST”: the “polyreactivity (PSR sort gate)” value is recorded as “high polyreactivity”.

Take “QVQLVESGGGLVQAGGSLRLSCAASGRIFYPYAMGLYRQAPGKEREFVADISSAGSTYYADSVKGRFTISRDNAKNTVYLQMNSLKPEDTAVYYCAADRTSGAYYFRFLYDRDYWGQGTQVTVSS”: the “polyreactivity (PSR sort gate)” value is listed as “low polyreactivity”.

As for “QVQLVESGGGLVQAGGSLRLSCAASGRTFASYAMGWYRQAPGKERELVAVISRGGSNTNYADSVKGRFTISRDNAKNTVYLQLNSLKPEDTAVYYCADLAFKRYNPGGYDYWGQGTQVTVSS”, the “polyreactivity (PSR sort gate)” value is on record as “high polyreactivity”.

For the sequence “QVQLVESGGGLVQAGGSLRLSCAASGSILYSYAMGWYRQAPGKERELVARITKRGGRTYYADSVKGRFTISRDNAKNTVYILMNSLKPEDTAVYYCAADFQYSYGEYDYWGQGTQVTVSS”, the “polyreactivity (PSR sort gate)” value was “high polyreactivity”.

For the sequence “HVQLVESGGGLVQAGGSLRLSCAASGSIFVSYGMGWYRQAPGKEWELVASISNSAGSTYYADSVKGRFTISRDNAQNTVYLQMNSLKPDDTAVYSCAADYWVWAYGGYDAYNYWGQGTQVTVSS”, the “polyreactivity (PSR sort gate)” value is “high polyreactivity”.

“QVQLVESGGVLVQAVGSLRLSCAASGSIFRLYALGWYREARGKEREFVATITWSGGSTSYADSVKGRFTISRDNAKNTVYLQMNSLKPEDTAVYYCAAKRRYWLYDWGQGTQVTVSS”: the “polyreactivity (PSR sort gate)” value is on record as “high polyreactivity”.

Consider “QVQLVESWGGLDQAGGSLRLSCAASGRTIRRYAMGCYRQAPGKERELVASISTSGGSTNADSVKGRFTISRDNSKNTVYLQMNSLKPEDTAVYYCAVRYPRYVRNGDYWGQGTQVTVSS”, for which the “polyreactivity (PSR sort gate)” value is “high polyreactivity”.

“QVQLVESGGGLVQAGGSLRLSCAASGFTITTYAMGWYRQAPGKERELVAVISVSGGRTYYADSVKGRFTISRDNAKNTVYLQMNSLKPEDTAVYYCAAEYYPGWEYGYWGQGTQVTVSS”: the “polyreactivity (PSR sort gate)” value is listed as “high polyreactivity”.

On to “QVQLVESGGGLVQAGGSLRLSCAASGRTFRSYAMGWYRQAPGKERELVAAIRGGGGRTHYADSVKGRFTISRDNAKNTVYLQMNSLKPEDTAVYYCAAGRPYLESKLYDYWGQGTHVTVSS”, for which the “polyreactivity (PSR sort gate)” value is “high polyreactivity”.

In the case of “QVQLVESGGGLVEAGGSLRLSCAASGRIFKYYAMGWYRQAPGKERELVAAISRGGSTYYADSVKGRFTISRDNAKNTVYLQMNSLKPEDTAVYFCAAVNGWRRVLRFDYWGQGTQVTVSS”, the “polyreactivity (PSR sort gate)” value is recorded as “high polyreactivity”.

For the sequence “QVQLVESGGGLVQAGGSLRLSCAASGRTFSYYSMGWYRQAPGKERELVAAITSGGGRTYYADSVKGRFTISRDNAKNTVYLQMNRLKPEDTAVYYCNALYTLYNGYDYWGQGTQVTVSS”, the “polyreactivity (PSR sort gate)” value is reported as “high polyreactivity”.

Turning to “QVQLVESGGGLVQAGGSLRLSCAASGRTFKIYAMGWYRQAPGKERELVAAIRRSGGNTYYADSVKGRFTISRDNAKNTVYLQMNSLKPEDTAVYYCATRGYPGGYQRSQSMYYWGQGTQVTVSS”, the “polyreactivity (PSR sort gate)” value is recorded as “high polyreactivity”.

For the sequence “QVQHVESGGGIVQAGGSLRLSCPASGSIYRKYAMGWSRQTPGKERELVAAIRSSGGSTYYADSVKGRFTISRDNAKNTVYLQMNSLKPEDTAVYYCASTYYRPSRYDYCGQGTQVTVSS”, the “polyreactivity (PSR sort gate)” value is recorded as “high polyreactivity”.

On to “QVQLVESGGGLVQAGGSLRLSCAASGSIFVVYAMGWYRQAPGKERELVAVITDDGSTYYADSVKGRFTISRDNAKNTVYLQMNSLKPEDTAVYYCAAEGAATPDFGSWYYYWGQGTQVTVSS”, for which the “polyreactivity (PSR sort gate)” value is on record as “low polyreactivity”.

For the sequence “QVQLVESGGGLVQAGGSHRLSFAASGSIFTRYAMGWYRPAHGKEREFVAGISWTGGSTYYADSVKGRFTISRDIAKNTVYLQMYRLKPEDTGVYYCAAGYWYSAFSGWWDYSDLYYWGQGTQVTVSS”, the “polyreactivity (PSR sort gate)” value is reported as “high polyreactivity”.

As for “QVQLVESGGGLVQAGCSLRISCADSGRTFDEYAMGWYRQAPGKERELVAAISGSAGSTYYADSVKGRFTISRDNAKNSVYLQMNSLKPEDTAVYYCNAEVYGELYYWGQGTQVTVSS”, the “polyreactivity (PSR sort gate)” value is given as “low polyreactivity”.

For the sequence “QVQIVESGGGLVQAGGSLRLSCAASGSIFVQNAMGWYRQAPGKERELVAVINSGDSTNYADSVKGRFTISRDNAKNTVYLQMNSLKPEDTAVYYCAVDDVSYYYLRAYNYELSWYGSGLDYWGQGTQVTVSS”, the “polyreactivity (PSR sort gate)” value was “low polyreactivity”.

In the case of “QVQHVESGGGLVQAGGSLRLSCAASGRTSIPYAMGRYRQAPGKEWQLVAAISYSVGRTYYADSVKGRFTISRDNAKNTVYLQMNSLKPEDTAVYYCAAEYNGVVRDYDYWGQGTQVTVSS”, the “polyreactivity (PSR sort gate)” value is given as “low polyreactivity”.

Take “QVQLEESGGGLVQAGGSLRLSCAASGRTFYSSAMGWYRQPPGKERQLVAAITISGGRTFYADSVKGRSTISRDNAKNTVYLQMNSLKPEDTAVYYCATDTYEPFHFEDDYWGQGTQVTVST”: the “polyreactivity (PSR sort gate)” value is listed as “low polyreactivity”.

For “QVQLVESGGGLVQAGGSLRLSCAASGSIFRGYAMGWYRPAPGKERELVAAISSSGGTTYYADSVKGRFTISRDNAKNTVYLQMNSLKPEDTAVYYCNARHPYTGGRRYPYTRYDYWGQGTQVTVSS”, the “polyreactivity (PSR sort gate)” value is “high polyreactivity”.

Take “QVQLVESGGCLVQAGGTLRLSCAASGFTFGNNGMGWYRQAPGKERELVATISWSGGSTDADSVKGRFTISRDNAKNTVYLQMNSLKPEDTAVSYCAARPRWYFFSYGRQDDGSWGQGTQVTVSS”: the “polyreactivity (PSR sort gate)” value is on record as “low polyreactivity”.

“QVQLVESGGGLVQAGGSLRLSCADSGFIFGYYAMGWYRQAPGKERELVAAINKNGGSTYYADSVKGRFTISRDNAKNTVYLQMNSLKPEDTAVYYCAARARGYAWTFDYWGQGTQVTVSS”: the “polyreactivity (PSR sort gate)” value was “high polyreactivity”.

Take “QVQLVESGGGLVQAGGSLRLSCAASGGTIGRYTMGWYRQAPGKERELVAAITGRGGSTYYADSVKGRFTISRDNAKNTVYLQMNSLKPEDTAVYYCAAVSNVARMYYWGQGTQVTVSS”: the “polyreactivity (PSR sort gate)” value is “high polyreactivity”.

Take “QVQLVESGGGLVQAGGSLRLSCAASGYIFDGNAMGWYRQAPGKERELVASISSGTSTYYADSVKGRFTISRDNAKNTVYLQMNSLKPEDTAVYYCAGDYKWSGFGYWGQGTQVTVSS”: the “polyreactivity (PSR sort gate)” value is “low polyreactivity”.

With “QVQLVESGGGLVQAGGSLRLSCAASGRIFSWNAMGWYRQAPGKERELVARITNGGSTYYADSVKGRFTISRDNAKNTVYLQMNSLKPEDTAVYYCAAKYRYYWSSKSKGDYWGQGTQVTVSS”, the “polyreactivity (PSR sort gate)” value is “high polyreactivity”.

Take “QVQLVESGGGLVQAGGSLRLSCATSGSIFYRYAMGWYRQAPGKEREFVAAIRWRGGSTYYADSVKGRFTISRDNAKNTVYLQMNSLKPEDTAVYYCAAPTVQSYNYWGQGTQVTVSS”: the “polyreactivity (PSR sort gate)” value is reported as “high polyreactivity”.

On to “QVQLVESGGGLVQAGVSLRLSCAASGRTFFYNAMGWYRQAPGKERELVAAISSGGGYTYYADSVKGRFTISRDNAKNTVYLQMNSLKPEDTAVYYCAAASYRQPGYGYWGQGTQVTVSS”, for which the “polyreactivity (PSR sort gate)” value is listed as “high polyreactivity”.

Consider “QVQLVESGGRLVQAGGSLRISCAASGRTFRYYAKGWYRQAPGKERELVAAISSRGTRTYYADSVKGRFTISRDNAKNTGYLQMNSLKPEDTAVYYCATRYYQELAYDFWGQGTQVIVSS”, for which the “polyreactivity (PSR sort gate)” value is recorded as “high polyreactivity”.

For “QVQLVESGGGLVQAGGSLRLSCAASGRIFKDYAMGLYRQAPGKERELVAGIDYRGGSTYYADSVKGRFTISRDNAKNTVYLQMNSLKPEDNAVYYCAADSLISIYDYWGQGTQVTVSS”, the “polyreactivity (PSR sort gate)” value is reported as “low polyreactivity”.

As to “QVQLVESGGGLVQAGGSLRLSCAASGSTFSSYAMGWYRQAPGKERELVAAINWSRTRTYYADSVKGRFTISRDNAKNTVYFQMNSVIPEDTAVYYCAAPGFGETADYDYWGHGTQVTVSS”, the “polyreactivity (PSR sort gate)” value was “low polyreactivity”.

Regarding “QVQLVESGGGLVQAGGSLRLSCAASGRTFPNVMGWYRQAPGKERELVAAISSSVGSTSYADSVKGRFTISRDNAKNTVYLQMNSLKPEDTAVYYCAARYYYRDWVGIISTYYYWGQGTQVTVSS”, the “polyreactivity (PSR sort gate)” value is reported as “high polyreactivity”.

In the case of “QVQLVESGGGLVQAGGSLRISCAASGSTFFYYSMGWYRQAPGKEWEFVAHITSSDASTHYADSVKGRFTISRDNAKNTVNLQMNSQQPEDTAVYYCAADRYCGQANYYWGQGTQVTVSS”, the “polyreactivity (PSR sort gate)” value is recorded as “low polyreactivity”.
